Measured values taken from PMC6262447.

Target: NADPH-dependent thioredoxin reductase from Methanosarcina mazei strain Gö1 (Methanosarcina mazei strain Gö1)
Assay: SEC; Sephacryl S-300 gel filtration in 10 mM Tris-HCl pH 7.6, 100 mM NaCl, 2 mM 2-mercaptoethanol; column calibrated with the Bio-Rad Gel Filtration Standard; monomer to dimer

Work on “NADPH-dependent thioredoxin reductase from Methanosarcina mazei strain Gö1 (enzyme)” yielded a stoichiometry N of 2.
